From US20240254229A1 (Molecular Partners, published 2024)
Positions count from the first letter of the chain named. Where two headings read alike, the source gives them in different places.

Assays:
[1] = biological target: T1, human CD3 on primary human pan-T cells (human, UniProt P07766 23-207; P09693 23-182; P04234 22-171; P20963 22-164); assay: Mirrorball laser scanning cytometry on primary human pan-T cells, anti-penta-His Alexa Fluor 488 detection, 600 µM HSA
T1 construct: whole, on cells; Native complex on T cells isolated from PBMC; also called CD3 on Pan-T cells
T1 sequence (P07766 23-207, chain 1 of 4): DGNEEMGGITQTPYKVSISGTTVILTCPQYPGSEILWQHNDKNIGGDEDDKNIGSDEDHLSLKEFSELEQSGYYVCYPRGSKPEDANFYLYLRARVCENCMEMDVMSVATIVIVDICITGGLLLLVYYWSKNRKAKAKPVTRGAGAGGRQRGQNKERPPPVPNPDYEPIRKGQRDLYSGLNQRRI
T1 sequence (P09693 23-182, chain 2 of 4): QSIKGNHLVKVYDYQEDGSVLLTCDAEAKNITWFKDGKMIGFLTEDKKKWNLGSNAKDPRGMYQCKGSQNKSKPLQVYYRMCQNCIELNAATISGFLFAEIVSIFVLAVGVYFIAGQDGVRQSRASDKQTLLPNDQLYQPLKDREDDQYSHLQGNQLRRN
T1 sequence (P04234 22-171, chain 3 of 4): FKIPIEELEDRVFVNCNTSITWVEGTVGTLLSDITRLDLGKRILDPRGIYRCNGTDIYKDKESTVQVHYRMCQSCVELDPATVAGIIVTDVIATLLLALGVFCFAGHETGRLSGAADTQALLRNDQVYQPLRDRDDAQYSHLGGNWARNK
T1 sequence (P20963 22-164, chain 4 of 4): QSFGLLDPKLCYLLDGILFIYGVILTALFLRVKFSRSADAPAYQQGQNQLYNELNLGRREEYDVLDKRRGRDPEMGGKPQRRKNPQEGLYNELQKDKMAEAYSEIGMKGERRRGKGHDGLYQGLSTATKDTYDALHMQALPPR
Protocol: (§1) The determination of CD3 binding was performed with primary human T cells using Mirrorball laser scanning imaging cytometry. Therefore, primary T cells were isolated from human peripheral blood mononuclear cells (PBMCs) using a pan-T cell purification kit (Miltenyi Biotec). A titration of DARPin® protein #7, DARPin® protein #8 and DARPin® protein #9 and DARPin® protein #10, formatted into a trispecific format (including CD33 and CD123 binding ankyrin repeat domains), DARPin® protein #11, DARPin® protein #12, DARPin® protein #13 and DARPin® protein #14 UN tetraspecific format (including an additional ankyrin repeat domain binding specifically to human serum albumin) were incubated with 50′000 pan-T cells per well in presence of 600 μM human serum albumin (to mimic physiological serum concentration) for 30 minutes at 4° C. Two benchmark T-cell engagers, AMG330 and flotetuzumab were applied as controls, targeting CD33 or CD123. After washing, CD3 binding was detected by 1:100-diluted anti-penta-His Alexa Fluor 488 antibody (Qiagen). After 30 min incubation at 4° C., cells were washed and resuspended in Cytofix fixation buffer (BD Biosciences) and counterstained by 5 μM DRAQ5 (Abcam) for 15 min at RT. Median of mean fluorescence intensities of Alexa Fluor 488 binding on far-red counterstained cells were measured by Mirrorball using Cellista software (SPT Labtech) and data was plotted using GraphPad Prism 8.

[2] = biological target: T1, human CD3 on primary human pan-T cells; assay: Mirrorball cytometry on primary human pan-T cells, 600 µM HSA
Protocol: as §1

[3] = biological target: T2, human scCD3εγ (scCD3εγ_Avi-Bio) (human, biotin on the C-terminal Avi-tag (in vitro, BirA) where the biotinylated form was used); assay: SPR (ProteOn), biotinylated scCD3εγ on NLC chip, DARPin as analyte
T2 construct: Used for all SPR and HTRF results on human CD3; also called recombinant human CD3; human CD3
T2 chain: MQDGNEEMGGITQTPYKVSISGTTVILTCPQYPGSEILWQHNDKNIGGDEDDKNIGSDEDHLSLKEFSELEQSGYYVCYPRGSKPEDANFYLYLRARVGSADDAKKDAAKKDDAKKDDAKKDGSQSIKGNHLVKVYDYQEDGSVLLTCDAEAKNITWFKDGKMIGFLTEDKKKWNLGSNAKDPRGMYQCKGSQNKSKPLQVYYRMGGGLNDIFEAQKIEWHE
Protocol: The binding affinities of four purified ankyrin repeat proteins on recombinant human CD3 target were analyzed using a ProteOn instrument (BioRad) and the measurement was performed according standard procedures known to the person skilled in the art. For that, DARPin® protein #7, DARPin® protein #8 and DARPin® protein #9 and DARPin® protein #10 of the invention were subcloned and expressed as described above into derivatives of the pQE30 (Qiagen) expression vector, containing an N-terminal His-tag, CD33 and CD123 binding ankyrin repeat domains, followed by one of the four CD3 specific ankyrin repeat protein constructs.
Briefly, biotinylated human scCD3εγ was diluted in PBST (PBS, pH 7.4 containing 0.005% Tween 200) and coated on a NLC chip (BioRad) to a level of around 700-1400 resonance units (RU). The interaction of ankyrin repeat protein and human CD3 was then measured by injecting 300 μl running buffer (PBS, pH 7.4 containing 0.005% Tween 200) containing serial dilutions of ankyrin repeat proteins covering a concentration range between 64 nM and 4 nM for multi-trace SPR measurements, followed by a running buffer flow for at least 10 minutes at a constant flow rate of 60 μl/min (off-rate measurement). The regeneration was performed using 30 μl of 10 mM Glycine pH 2. The signals (i.e. resonance unit (RU) values) of the interspots and a reference injection (i.e. injection of running buffer only) were subtracted from the RU traces obtained after injection of ankyrin repeat protein (double-referencing). While binding was too weak for DARPin® protein #7, binding parameters (KD, on-rate, off-rate) against CD3 were determined for affinity matured constructs. On-rates (kₒₙ) and dissociation constants (KD) are given only as approximation because binding equilibrium was not appropriately reached even at highest samples concentration, leading to non-optimal fits for on-rates.
Dissociation constants (KD) were calculated from the estimated on- and off-rates using standard procedures known to the person skilled in the art.

[4] = biological target: T1, human CD3 on primary human pan-T cells; assay: Mirrorball cytometry on primary human pan-T cells, 600 µM HSA; remark: listed apart in the source
Protocol: as §1, with “of T cell” for “of CD3”, “protein #27,” for “protein #7,”, “protein #28” for “protein #8”, “protein #29” for “protein #9”, “protein #30” for “protein #10, formatted into a trispecific format (including CD33 and CD123 binding ankyrin repeat domains), DARPin® protein #11, DARPin® protein #12, DARPin® protein #13 and DARPin® protein #14 UN tetraspecific format (including an additional ankyrin repeat domain binding specifically to human serum albumin)”

[5] = biological target: T3, biotinylated extracellular domain of human CD123 (SEQ ID NO: 88), Fc and Avi tagged (human, UniProt P26951 19-303, biotinylated with BirA-GST (Avi tag)); assay: SPR (ProteOn XPR36), target on GLC chip
T3 construct: also called hCD123
T3 sequence: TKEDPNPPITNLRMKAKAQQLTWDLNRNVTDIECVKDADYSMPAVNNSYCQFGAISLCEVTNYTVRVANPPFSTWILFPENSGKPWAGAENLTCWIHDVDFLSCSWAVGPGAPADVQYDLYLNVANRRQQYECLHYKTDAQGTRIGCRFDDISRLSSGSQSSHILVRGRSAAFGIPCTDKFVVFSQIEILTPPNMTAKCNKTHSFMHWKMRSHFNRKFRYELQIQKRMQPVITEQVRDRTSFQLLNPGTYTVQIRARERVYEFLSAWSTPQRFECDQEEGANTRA
From the text: (§2) For that, DARPin® protein #27, DARPin® protein #29, DARPin® protein #47 and DARPin® protein #48 and DARPin® protein #49, DARPin® protein #50, DARPin® protein #51, DARPin® protein #52, DARPin® protein #31, DARPin® protein #53, DARPin® protein #54, DARPin® protein #55, DARPin® protein #34, DARPin® protein #33, DARPin® protein #39 and DARPin® protein #36 were subcloned and expressed as described above into derivatives of the pQE30 (Qiagen) expression vector, containing an N-terminal His-tag, CD33, CD123 and/or CD70 binding ankyrin repeat domains, followed by a CD3 specific ankyrin repeat domain and for some constructs by a human serum albumin specific ankyrin repeat domain.
(§3) Briefly, biotinylated human CD70, CD123 and CD33 was diluted in PBST (PBS, pH 7.4 containing 0.005% Tween 20®) and coated on a GLC chip (BioRad) to a level of around 200, 460 and 450 resonance units (RU) respectively. HSA in NaOAc pH 5.0 was directly immobilized on the GLC chip to a level of 800 RU. Bio.CD70, bio. CD33 and bio. CD123 required to have Neutravidin coated first to a level of 6000 RU before the biotinylated targets could be applied. The interaction of the selected ankyrin repeat proteins and human CD70, CD123 and CD33 was then measured by injecting 300 μl running buffer (PBS, pH 7.4 containing 0.005% Tween 20®) containing serial dilutions of ankyrin repeat proteins covering a concentration range between 100 nM and 2.6 nM (100, 40, 16, 6.4 and 2.6 nM respectively) for multi-trace SPR measurements, with an association of 120 s and dissociation of 1200 s using a constant flow of 100 μl/min. The regeneration was performed using 30 μl of 4 mM Glycine pH 2. The signals (i.e. resonance unit (RU) values) of the interspots and a reference injection (i.e. injection of running buffer only) were subtracted from the RU traces obtained after injection of ankyrin repeat protein (double-referencing).

human serum albumin = biological target: T4, human serum albumin (human, UniProt P02768 25-609); assay: SPR (ProteOn XPR36), target on GLC chip
T4 construct: also called HSA; SA
T4 sequence (P02768 25-609 limits assumed): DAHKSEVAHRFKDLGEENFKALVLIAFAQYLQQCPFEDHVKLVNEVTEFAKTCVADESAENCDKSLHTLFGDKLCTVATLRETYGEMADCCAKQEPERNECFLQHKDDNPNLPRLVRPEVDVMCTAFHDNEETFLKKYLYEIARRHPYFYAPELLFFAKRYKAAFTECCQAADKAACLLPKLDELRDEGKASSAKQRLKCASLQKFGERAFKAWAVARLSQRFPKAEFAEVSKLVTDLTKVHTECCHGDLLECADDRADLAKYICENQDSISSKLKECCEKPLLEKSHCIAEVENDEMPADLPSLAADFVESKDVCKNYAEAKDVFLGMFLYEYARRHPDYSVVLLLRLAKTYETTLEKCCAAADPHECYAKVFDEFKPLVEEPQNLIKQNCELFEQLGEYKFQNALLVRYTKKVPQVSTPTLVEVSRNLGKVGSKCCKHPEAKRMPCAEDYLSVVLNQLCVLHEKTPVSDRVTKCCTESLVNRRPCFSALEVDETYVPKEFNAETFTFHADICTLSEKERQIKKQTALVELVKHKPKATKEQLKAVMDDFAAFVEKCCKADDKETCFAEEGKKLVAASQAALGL
From the text: as §2, §3

[6] = biological target: T5, extracellular domain of human CD70 (SEQ ID NO: 89), hCD70-Fc-trimer, ACRO Biosystems (human, UniProt P32970 52-193, chemically biotinylated where the biotinylated form was used); assay: SPR (ProteOn XPR36), target on GLC chip, DARPin as analyte
T5 construct: also called human CD70-Fc-trimer; Bio.CD70
T5 sequence: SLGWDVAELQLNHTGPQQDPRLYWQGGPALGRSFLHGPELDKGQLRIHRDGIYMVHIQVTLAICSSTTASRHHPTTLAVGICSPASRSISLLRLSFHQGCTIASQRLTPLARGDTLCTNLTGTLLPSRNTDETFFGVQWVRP

[7] = biological target: T6, biotinylated extracellular domain of human CD33 (SEQ ID NO: 87), Fc and Avi tagged (human, UniProt P20138 18-259, biotinylated with BirA-GST (Avi tag)); assay: as above
T6 construct: also called hCD33; human target hCD33
T6 sequence (P20138 18-259 R69G): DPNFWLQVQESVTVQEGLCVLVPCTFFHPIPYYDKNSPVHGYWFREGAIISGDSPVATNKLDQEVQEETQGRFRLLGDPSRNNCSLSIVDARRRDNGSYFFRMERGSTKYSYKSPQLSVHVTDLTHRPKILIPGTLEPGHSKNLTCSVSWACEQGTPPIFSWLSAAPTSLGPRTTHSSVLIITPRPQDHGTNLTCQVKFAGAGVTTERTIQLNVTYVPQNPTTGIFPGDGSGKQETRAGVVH

B1: DARPin® protein 11 (designed binder)
single chain: DLGKKLLEAARAGQDDEVRELLKAGADVNAKDYFSHTPLHLAARNGHLKIVEVLLKAGADVNAKDFAGKTPLHLAAADGHLEIVEVLLKAGADVNAQDIFGKTPADIAADAGHEDIAEVLQKAAGSPTPTPTTPTPTPTTPTPTPTGSDLGKKLLEAARAGQDDEVRILMANGADVNALDWLGHTPLHLAAYEGHLEIVEVLLKNGADVNAIDDNNGFTPLHLAAIDGHLEIVEVLLKNGADVNAQDKFGKTAFDISIDNGNEDLAEILQKAAGSPTPTPTTPTPTPTTPTPTPTGSDLGDKLLLAATSGQDDEVRILLAAGADVNAKDYDGDTPLHLAADEGHLEIVEVLLKAGADVNAKDYSGSTPLHAAAAYGHLEIVEVLLKAGADVNAQDVFGYTPADLAAYVGHEDIAEVLQKAAGSPTPTPTTPTPTPTTPTPTPTGSDLGQKLLEAAWAGQDDEVRELLKAGADVNAKDSQGWTPLHTAAQTGHLEIFEVLLKAGADVNAKDDKGVTPLHLAAALGHLEIVEVLLKAGADVNAQDSWGTTPADLAAKYGHEDIAEVLQKAA
notes: half-life extended format of DARPin® protein #7; also called HSA-CD123-CD33-CD3
B1: no binding (tested: about 3000 nM) [1].

B2: DARPin® protein #14 (designed binder)
chain: B1 single chain with D460L, E465I, D477N, Q479R, D510T, D511N, G513R, Q542R, S544T, E559R
notes: HSA-CD123-CD33-CD3, half-life extended form of #10; not shown: His-tag implied by anti-penta-His detection
For B2, the “EC50 (read off the curve)” value [1] was about 20 nM.

B3: DARPin® protein #8 (designed binder)
chain: DLGKKLLEAARAGQDDEVRILMANGADVNALDWLGHTPLHLAAYEGHLEIVEVLLKNGADVNAIDDNNGFTPLHLAAIDGHLEIVEVLLKNGADVNAQDKFGKTAFDISIDNGNEDLAEILQKAAGSPTPTPTTPTPTPTTPTPTPTGSDLGDKLLLAATSGQDDEVRILLAAGADVNAKDYDGDTPLHLAADEGHLEIVEVLLKAGADVNAKDYSGSTPLHAAAAYGHLEIVEVLLKAGADVNAQDVFGYTPADLAAYVGHEDIAEVLQKAAGSPTPTPTTPTPTPTTPTPTPTGSDLGQKLLEAAWAGQDDEVRELLKAGADVNAKNSRGWTPLHTAAQTGHLEIFEVLLKAGADVNAKDDKGVTPLHLAAALGHLEIVEVLLKAGADVNAQDSWGTTPADLAAKYGHEDIAEVLQKAA
notes: CD123-CD33-CD3 ankyrin repeat protein, no half-life extension; also called DARPin® #8; not shown: N-terminal His-tag
B3 was tested, and the EC50 [2] was 250 to 400 nM, the Kd [3] was about 35 nM and the koff [3] was 0.0015 s⁻¹. It also gave a kon [3] of about 49000 M⁻¹ s⁻¹.

B4: DARPin® protein #7 (designed binder)
chain: B3 chain with N329D, R331Q
notes: CD123-CD33-CD3 ankyrin repeat protein, no half-life extension; also called DARPin® #7; not shown: N-terminal His-tag
B4: no binding [1].

B5: DARPin® protein #29 (designed binder)
chain: DLGYKLLQAAYDGQLDEVRILLKAGADVNAKDSRGQTPLHYAASIGHLEIVEVLLKAGADVNAKDDHGWTPLHLAAWSGHLEIVEVLLKAGADVNAQDQEGTTPADLAAVQGHQDIAEVLQKAAGSPTPTPTTPTPTPTTPTPTPTGSDLGVKLLLAASRGQLDEVRILLKAGADVNAKDIDEGYTPLHIAAYYGHLEIVEVLLKAGADVNAKDRYGKTPLHLAAISGHLEIVEVLLKAGADVNAQDDKGDTPADLAADYGHQDIAEVLQKAAGSPTPTPTTPTPTPTTPTPTPTGSDLGQKLLEAAWAGQDDEVRELLKAGADVNAKNSRGWTPLHTAAQTGHLEIFEVLLKAGADVNAKDDKGVTPLHLAAALGHLEIVEVLLKAGADVNAQDSWGTTPADLAAKYGHEDIAEVLQKAA
notes: CD70-CD33-CD3; not shown: N-terminal His-tag
In the case of B5, the EC50 [4] is reported as 1.97 nM, the binding result [5] is reported as “no binding (tested: 100 nM (highest concentration))” and the binding result (human serum albumin) is reported as “no binding (tested: 100 nM (highest concentration))”. It also gave a Kd [6] of 0.18 nM and a Kd [7] of 4.8 nM.
